From article PMC9646525, “Cryo-EM structure of the SEA complex” (Nature, 2022)

B1: Sea3 (natural protein, UniProt Q03897 1-1148, looked up)
chain: MCSSINEGPYNSPTFGKSLSLKVDGGFNAVSINPSGRDIVLASRQGLYIIDLDDPFTPPRWLHHITPWQVADVQWSPHPAKPYWIVSTSNQKAIIWNLAKSSSNAIEFVLHGHSRAITDINFNPQHPDVLATCSVDTYVHAWDMRSPHRPFYSTSSWRSAASQVKWNYKDPNVLASSHGNDIFVWDLRKGSTPLCSLKGHVSSVNSIDFNRFKYSEIMSSSNDGTVKFWDYSKSTTESKRTVTTNFPIWRGRYLPFGEGYCIMPMVGGNNAVYLINLCDDDDSEQNKKTKLQPIYAFKGHSDRVIDFLWRSRHTCDGDYDDREFQLVTWSKDCDLKLWPISDSIYGKVNFDRGKRLEEKLPDYDYCSYNKEPENRENVQKNEFRRLRENFVTTSGLKKNKTNHITWLSGIRMNSATSQEDLFNETKIQNLGEEVSAIGHKFPKVVFEKISVSTRELCLTLNGPWSEENPDDYIFLRISINFPLNYPNKGDPPKFTIEENSNLTMSKRQEILSNLATIGQKYTDSNLYCLEPCIRFVLGEKVSLEDIEEGQEPLLNFDIADHIDFEELSSLDSSYSDSQNPENLSSQSDIESYKEALVFPDTSNQGLDFGRNLALDTTPVPNGCGSCWTATGELFCFFANEKKPEKKQNAIIKLSQKEAGVEKHPFKIEPQVLYDKEVDSSVITAADELKARPKRYVDTLGLGGGTNGDSRTYFDDETSSDDSFDSVADDWDDILRNDIIVRTKIPILRGNFKAFSSVHSESGKTVESTKKNKNLVISKNFSSLLSDRKELALEYLFMDATPEGFARNNALVAEKFDLDEISHCWQILSDMLIDQSDYDPYTTIWNNHPMGIKWFIKEAIVYFERQQNLQMLAMLCCVILSARRKKIPARYYGQELENMEGTIVFNDNESQNTSFWKGSDAFSTRSRSSTVTPNFYGNHLRGKNIHGGDNSSIRSDDHHARLRTHNTLNGSSKFTEPAQKQGSRAISSSPFHSRMPDIKVELLHDDIIEAYEQEDLLHLEVSDIPKFQTYIYQYSKLLFRWGLPLERVKILKVSTDFRSSYSSQGIPPNNNKKSPYNGVLTHWIENNEFGEEKFLARNCNYCDLRVTRSSFICGNCQHVLHSSCARIWWEIGDECPSGCGCNCPEMFDA
notes: Sea3, S. cerevisiae, endogenous subunit of the SEAC; Sea3^SIP (Sea3^Nter) lies in the wing, Sea3^SAP (Sea3^Cter) in the core; Native protein of the purified complex; two copies in the SEAC; source: endogenous, yeast cells expressing Sea4-TAP; in lysate and co-purified with Sea4-TAP (IgG Dynabeads, TEV elution)
B2: Npr2 (natural protein, UniProt P39923 1-615, looked up)
chain: MLSYFQGFVPIHTIFYSVFHPTEGSKIKYEFPPNNLKNHGINFNTFKNYIIPKPILCHKLITFKYGTYRIVCYPVTINSPIYARNFFSFNFVFVFPYDCETSPYEPAITRLGKMFKVLEEQNQLLSKSERDPVFFDLKVLENSTTTPSTAGPSSTPNPSSNTTPTHPTSEKDTKDMRSSRYSDLIKDLGLPQSAFSIQDLLMRIFQDLNNYSECLIPIDEGNAVDIKIFPLLRPPTTCVSLEDVPLSSVNLKKIIDVNWDPTMMSIVPYIDGLNSIAKISKLSNSDPGLVIECIRHLIYYKCVTLSDIFQFSNIYAPSSLIRNFLTDPLMASDCQSYVTFPEVSKISNLPLNKSLGSGDQDSPSFSVRRKSKSSSIPSNPDSRTTSFSSTSRVSQNSSLNSSFSSIYKDWRQSQTSCSSSNIHVINNRNRFLPTRSCLFDLYRSLSQGQTLKTWYESKYMILKENNIDIRRFITFGLEKRIIYRCYSFPVMINAGSREPKEMTPIITKDLVNNDKLLEKRNHNHLLSATGSRNTAQSGNLKPERPSKVSFEMQRVSSLATGKSTMPKLSDEEEGILEESIRNAETFDKICVLLSKPKLEVESYLNELGEFKVINS
notes: Npr2, S. cerevisiae, endogenous subunit of the SEAC (SEACIT, wing); Native protein of the purified complex; two copies in the SEAC; source: endogenous, yeast cells expressing Sea4-TAP or Sea1-TAP; in lysate and co-purified with the tagged subunit (IgG Dynabeads, TEV elution)
B3: Sec13 (natural protein, UniProt Q04491 1-297, looked up)
chain: MVVIANAHNELIHDAVLDYYGKRLATCSSDKTIKIFEVEGETHKLIDTLTGHEGPVWRVDWAHPKFGTILASCSYDGKVLIWKEENGRWSQIAVHAVHSASVNSVQWAPHEYGPLLLVASSDGKVSVVEFKENGTTSPIIIDAHAIGVNSASWAPATIEEDGEHNGTKESRKFVTGGADNLVKIWKYNSDAQTYVLESTLEGHSDWVRDVAWSPTVLLRSYLASVSQDRTCIIWTQDNEQGPWKKTLLKEEKFPDVLWRASWSLSGNVLALSGGDNKVTLWKENLEGKWEPAGEVHQ
notes: Sec13, S. cerevisiae, endogenous subunit of the SEAC (SEACAT, core); Native protein of the purified complex; two copies in the SEAC; source: endogenous, yeast cells expressing Sea4-TAP; in lysate and co-purified with Sea4-TAP (IgG Dynabeads, TEV elution)

How the values were obtained:
Experiment in all cases: cryo-EM structure; endogenous SEAC purified from yeast via Sea4-TAP (IgG Dynabeads, TEV elution in 20 mM HEPES-NaOH pH 7.4, 300 mM NaCl, 2 mM DTT), on graphene-oxide-coated grids
Details in all cases: both partners purified
[1] = biological target: T1, Sea2 (S. cerevisiae (endogenous in yeast …, UniProt Q08281 1-1341))
T1 construct: Sea2, S. cerevisiae, endogenous subunit of the SEAC (SEACAT, core); Native protein of the purified complex; two copies in the SEAC; source: endogenous, yeast cells expressing Sea4-TAP; in lysate and co-purified with Sea4-TAP (IgG Dynabeads, TEV elution)
T1 sequence (looked up): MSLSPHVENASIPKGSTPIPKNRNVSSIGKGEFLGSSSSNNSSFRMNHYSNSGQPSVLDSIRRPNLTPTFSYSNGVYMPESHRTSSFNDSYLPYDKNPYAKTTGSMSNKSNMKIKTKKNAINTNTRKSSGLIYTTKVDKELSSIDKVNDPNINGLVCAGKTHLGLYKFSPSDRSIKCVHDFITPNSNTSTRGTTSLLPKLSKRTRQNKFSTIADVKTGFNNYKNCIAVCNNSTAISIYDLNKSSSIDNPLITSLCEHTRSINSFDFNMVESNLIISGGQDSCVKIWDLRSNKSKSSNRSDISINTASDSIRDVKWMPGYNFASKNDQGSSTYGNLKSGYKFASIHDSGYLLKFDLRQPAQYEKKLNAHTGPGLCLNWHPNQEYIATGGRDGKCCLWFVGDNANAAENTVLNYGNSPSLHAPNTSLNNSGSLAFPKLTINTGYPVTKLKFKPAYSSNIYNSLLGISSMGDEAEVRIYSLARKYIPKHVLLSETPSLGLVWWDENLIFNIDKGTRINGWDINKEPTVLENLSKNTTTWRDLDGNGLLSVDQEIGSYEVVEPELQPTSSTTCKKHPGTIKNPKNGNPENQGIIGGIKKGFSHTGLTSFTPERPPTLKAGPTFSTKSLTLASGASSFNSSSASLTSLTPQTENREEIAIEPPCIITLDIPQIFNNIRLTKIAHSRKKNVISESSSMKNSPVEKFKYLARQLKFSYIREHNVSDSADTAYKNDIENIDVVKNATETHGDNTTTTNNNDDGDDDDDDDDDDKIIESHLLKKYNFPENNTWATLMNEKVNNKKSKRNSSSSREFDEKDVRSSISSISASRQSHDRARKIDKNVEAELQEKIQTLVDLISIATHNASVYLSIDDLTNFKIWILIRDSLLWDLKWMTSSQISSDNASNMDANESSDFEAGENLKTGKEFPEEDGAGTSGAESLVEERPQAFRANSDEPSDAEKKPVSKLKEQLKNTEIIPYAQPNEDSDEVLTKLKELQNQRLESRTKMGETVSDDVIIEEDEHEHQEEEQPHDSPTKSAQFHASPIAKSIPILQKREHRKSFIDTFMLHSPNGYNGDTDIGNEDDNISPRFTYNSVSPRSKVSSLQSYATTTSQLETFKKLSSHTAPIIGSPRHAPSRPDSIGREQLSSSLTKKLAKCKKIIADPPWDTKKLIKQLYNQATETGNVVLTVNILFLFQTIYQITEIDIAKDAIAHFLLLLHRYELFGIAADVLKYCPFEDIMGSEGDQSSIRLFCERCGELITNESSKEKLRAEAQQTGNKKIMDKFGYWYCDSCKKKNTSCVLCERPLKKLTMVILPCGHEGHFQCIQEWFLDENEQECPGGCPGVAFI

[2] = biological target: T2, Sea1 (S. cerevisiae (endogenous in yeast …, UniProt P47170 1-1584))
T2 construct: Sea1 (Iml1), S. cerevisiae, endogenous subunit of the SEAC (SEACIT, wing); Native protein of the purified complex; two copies in the SEAC; also called Iml1; Sea1/Iml1; source: endogenous, yeast cells expressing Sea4-TAP; in lysate and co-purified with Sea4-TAP (IgG Dynabeads, TEV elution)

[3] = biological target: B1

T2 sequence (P47170 whole entry): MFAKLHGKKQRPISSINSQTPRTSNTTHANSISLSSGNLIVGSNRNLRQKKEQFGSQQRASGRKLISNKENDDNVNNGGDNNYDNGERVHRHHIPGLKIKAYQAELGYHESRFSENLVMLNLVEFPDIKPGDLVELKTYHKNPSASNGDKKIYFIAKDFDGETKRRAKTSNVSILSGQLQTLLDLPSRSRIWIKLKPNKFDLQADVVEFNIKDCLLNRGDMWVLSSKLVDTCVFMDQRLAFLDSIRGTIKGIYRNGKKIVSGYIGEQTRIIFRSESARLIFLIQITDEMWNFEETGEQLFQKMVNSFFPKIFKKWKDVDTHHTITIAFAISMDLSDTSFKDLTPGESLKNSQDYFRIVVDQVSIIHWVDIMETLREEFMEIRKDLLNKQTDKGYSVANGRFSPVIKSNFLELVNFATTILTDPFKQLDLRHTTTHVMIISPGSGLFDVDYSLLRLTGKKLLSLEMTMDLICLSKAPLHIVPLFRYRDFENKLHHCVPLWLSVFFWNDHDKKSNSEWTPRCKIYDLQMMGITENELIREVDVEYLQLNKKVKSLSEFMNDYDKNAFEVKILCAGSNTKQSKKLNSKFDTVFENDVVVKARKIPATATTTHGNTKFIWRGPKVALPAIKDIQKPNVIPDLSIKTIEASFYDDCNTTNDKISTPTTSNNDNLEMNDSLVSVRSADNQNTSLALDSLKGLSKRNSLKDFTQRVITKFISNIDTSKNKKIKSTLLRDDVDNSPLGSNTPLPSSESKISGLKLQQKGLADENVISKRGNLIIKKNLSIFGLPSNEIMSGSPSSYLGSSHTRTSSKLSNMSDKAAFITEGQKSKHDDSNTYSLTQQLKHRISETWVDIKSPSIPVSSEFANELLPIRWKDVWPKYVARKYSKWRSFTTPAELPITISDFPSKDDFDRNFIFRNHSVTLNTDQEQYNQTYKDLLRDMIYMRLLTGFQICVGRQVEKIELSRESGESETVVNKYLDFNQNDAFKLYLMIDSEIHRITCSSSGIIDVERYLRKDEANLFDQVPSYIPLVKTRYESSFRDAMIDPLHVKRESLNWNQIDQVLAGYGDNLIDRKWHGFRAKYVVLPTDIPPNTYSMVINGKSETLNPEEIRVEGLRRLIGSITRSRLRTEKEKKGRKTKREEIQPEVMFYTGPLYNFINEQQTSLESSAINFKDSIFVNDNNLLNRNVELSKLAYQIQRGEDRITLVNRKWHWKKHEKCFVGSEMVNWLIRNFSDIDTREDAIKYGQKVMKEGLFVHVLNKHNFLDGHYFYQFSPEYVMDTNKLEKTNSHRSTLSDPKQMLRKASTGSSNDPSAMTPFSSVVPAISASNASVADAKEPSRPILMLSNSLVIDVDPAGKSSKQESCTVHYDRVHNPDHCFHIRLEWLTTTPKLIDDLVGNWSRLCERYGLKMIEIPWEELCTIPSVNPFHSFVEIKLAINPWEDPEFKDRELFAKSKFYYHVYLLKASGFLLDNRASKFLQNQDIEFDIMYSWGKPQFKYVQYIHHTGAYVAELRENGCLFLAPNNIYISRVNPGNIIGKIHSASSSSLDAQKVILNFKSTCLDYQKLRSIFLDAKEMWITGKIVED

Binder | binding result [1] | binding result [2] | binding result [3]
B1 | binds | binds | –
B2 | – | binds | binds
B3 | – | – | binds
